B1: L9 Fab (Fab, V domains shown)
VH: QVKLVESGGGVVQPGRSLRLSCEASGFIFSTYGMHWVRQAPGKGLEWVAVIWFDGSNIYYADSVKGRFTISRDNSKNTVFMQMDSLRAEDTAVYYCHRNFYDGSGPFDYWGQGTLVTVSS
VL: DIQMTQSPSTLSASVGDRVTITCRASQFISRWLAWYQQKPGKAPKLLIYKASSLESGVPSRFSGSGSETHFTLTISSLQPDDVATYYCQEYTSYGRTFGQGTKVEIK
notes: source: for crystallization: ExpiCHO cells, purified (HiTrap Protein G HP, size exclusion chromatography)
B2: Monoclonal antibody L9 (human IgG) (antibody, V domains shown)
VH: B1 VH
VL: B1 VL

What was measured:
Settings in all cases: both partners purified
[1] = target: T1, SES-2 (single epitope scaffold 2); experiment: SPR
T1 construct: also called SES-2 scaffold; source: FreeStyle 293F cells, transfected, purified (nickel column, Superdex 200 Increase gel filtration)

J3 junctional peptide = target: T2, J3 junctional peptide (Plasmodium falciparum (identical to 3D7 …)); experiment: ELISA; plates coated with peptide at 2 ug/mL in PBS; antibodies diluted fourfold from 10 ug/mL; peroxidase secondary antibody
T2 construct: also called junctional peptide (J3)
T2 chain: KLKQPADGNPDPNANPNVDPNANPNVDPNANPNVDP

[2] = target: TES-1 (triple-epitope scaffold 1) (synthetic de novo design (grafts PfCSP …)); experiment: KinExA (kinetic exclusion assay)

Row | Binder | Kd [1] [nM] | binding result (J3 junctional peptide) | Kd [2] [nM]
1 | B1 | 29 |  | 
2 | B2 |  | binds | 0.085

— article PMC13079917 (Proceedings of the National Academy of Sciences of the …, 2026)
